Source: publication PMC11490574, “IGF2BP1 phosphorylation in the disordered linkers regulates ribonucleoprotein condensate formation and RNA metabolism”

B1: XBP1 201 nt (ssRNA)
RNA: UCUCAAAUCUGCUUUCAUCCAGCCACUGCCCAAAGCCAUCUUCCUGCCUACUGGAUGCUUACAGUGACUGUGGAUACGGGGGUUCCCUUUCCCCAUUCAGUGACAUGUCCUCUCUGCUUGGUGUAAACCAUUCUUGGGAGGACACUUUUGCCAAUGAACUCUUUCCCCAGCUGAUUAGUGUCUAAGGAAUGAUCCAAUACU
B2: MYC 191 nt (ssRNA)
RNA: UGCGUGACCAGAUCCCGGAGUUGGAAAACAAUGAAAAGGCCCCCAAGGUAGUUAUCCUUAAAAAAGCCACAGCAUACAUCCUGUCCGUCCAAGCAGAGGAGCAAAAGCUCAUUUCUGAAGAGGACUUGUUGCGGAAACGACGAGAACAGUUGAAACACAAACUUGAACAGCUACGGAACUCUUGUGCGUAA
B3: EIF2A 200 nt (ssRNA)
RNA: AGAAAAUUCAGAAAGAAACAGCCCUUCUCCAGGAGCUGGAAGAUUUGGAAUUGGGUAUUUAAAGAUUCACGGAAAGCAAGUUGAUGACCAGAAAUCAGUGCAAACACAUCUUCUGUUAAACCCAUUGGUAUACACAGAAUAUUCCUGUGCCCACACUUAAUGUCAAUCUAUAAUUUUAACCAUUUAUCCAAGAUUCUACU

Key:
[1] = target: IGF2BP1 KH1-4 (UniProt Q9NZI8 195-553); experiment: fluorescence anisotropy; EMSA: 25 mM HEPES pH 7.3, 150 mM NaCl, 5% glycerol, 2 mM EDTA, 10 ug/mL heparin, 0.5 mM TCEP, on ice, gel 4 C; FA: 25 mM HEPES 7.3, 150 mM NaCl, 0.025% Tween 20, 10 ug/mL heparin, 2 mM EDTA, 0.5 mM TCEP, 10 nM RNA, 20 C; conditions: protein: recombinant; tags: His removed by 3C; label: 5'-fluorescein
Sequence of IGF2BP1 KH1-4 (Q9NZI8 195-553): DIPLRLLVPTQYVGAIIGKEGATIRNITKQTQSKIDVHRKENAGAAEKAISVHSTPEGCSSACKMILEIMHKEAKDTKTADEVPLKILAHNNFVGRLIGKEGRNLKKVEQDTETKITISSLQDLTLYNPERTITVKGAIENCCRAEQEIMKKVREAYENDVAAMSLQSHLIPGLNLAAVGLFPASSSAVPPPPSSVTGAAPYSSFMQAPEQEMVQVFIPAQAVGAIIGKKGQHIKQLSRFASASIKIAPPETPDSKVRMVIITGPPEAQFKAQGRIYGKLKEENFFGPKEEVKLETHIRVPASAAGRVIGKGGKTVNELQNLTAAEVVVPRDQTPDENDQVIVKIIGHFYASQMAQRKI

[2] = target: T1, IGF2BP1 wild-type (UniProt Q9NZI8 1-577); experiment: as above; conditions: protein: recombinant; tags: GST removed by 3C; label: 5'-fluorescein
T1 sequence (Q9NZI8 whole entry): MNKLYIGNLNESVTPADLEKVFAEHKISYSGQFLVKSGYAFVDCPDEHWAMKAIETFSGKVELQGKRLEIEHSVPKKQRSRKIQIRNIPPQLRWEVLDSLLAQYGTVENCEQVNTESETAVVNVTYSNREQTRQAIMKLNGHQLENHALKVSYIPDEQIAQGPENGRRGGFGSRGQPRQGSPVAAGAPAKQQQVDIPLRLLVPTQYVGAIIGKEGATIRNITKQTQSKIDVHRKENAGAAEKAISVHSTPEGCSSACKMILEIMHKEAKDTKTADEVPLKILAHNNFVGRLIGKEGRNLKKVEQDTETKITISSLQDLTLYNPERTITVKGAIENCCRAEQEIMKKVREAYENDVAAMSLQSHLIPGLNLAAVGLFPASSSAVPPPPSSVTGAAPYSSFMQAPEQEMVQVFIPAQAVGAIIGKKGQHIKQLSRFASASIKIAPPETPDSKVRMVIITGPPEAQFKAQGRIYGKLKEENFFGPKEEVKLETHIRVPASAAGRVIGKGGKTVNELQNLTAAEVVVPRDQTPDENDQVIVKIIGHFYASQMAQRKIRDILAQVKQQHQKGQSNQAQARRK

[3] = target: IGF2BP1 KH3-4 (UniProt Q9NZI8 405-553); experiment: as above; conditions: protein: recombinant; tags: His removed by 3C; label: 5'-fluorescein
Sequence of IGF2BP1 KH3-4 (Q9NZI8 405-553): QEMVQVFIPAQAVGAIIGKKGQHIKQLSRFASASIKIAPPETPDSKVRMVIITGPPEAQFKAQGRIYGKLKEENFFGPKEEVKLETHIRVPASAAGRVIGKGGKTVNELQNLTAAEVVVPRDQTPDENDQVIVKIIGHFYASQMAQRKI

[4] = target: T2, IGF2BP1 S181E (UniProt Q9NZI8 1-577, S181E); experiment: as above; conditions: protein: recombinant; tags: GST removed by 3C; label: 5'-fluorescein
T2 sequence (Q9NZI8 whole entry S181E): as the sequence (Q9NZI8 whole entry) above, with S181E counted along it

[5] = target: T3, IGF2BP1 Y396E (UniProt Q9NZI8 1-577, Y396E); experiment: as above; conditions: protein: recombinant; tags: GST removed by 3C; label: 5'-fluorescein
T3 sequence (Q9NZI8 whole entry Y396E): as the sequence (Q9NZI8 whole entry) above, with Y396E counted along it

[6] = target: T4, IGF2BP1 KH3-4dR (KH3GEEG-KH4GEEG) (UniProt Q9NZI8 1-577, K423E;K424E;K505E;G506E); experiment: as above; conditions: protein: recombinant; tags: GST removed by 3C; label: 5'-fluorescein
T4 sequence (Q9NZI8 whole entry K423E/K424E/K505E/G506E): as the sequence (Q9NZI8 whole entry) above, with K423E, K424E, K505E, G506E counted along it

[7] = target: T5, IGF2BP1 RQ (UniProt Q9NZI8 1-577, R167Q;R168Q;R174Q;R178Q); experiment: as above; conditions: protein: recombinant; tags: GST removed by 3C; label: 5'-fluorescein
T5 sequence (Q9NZI8 whole entry R167Q/R168Q/R174Q/R178Q): as the sequence (Q9NZI8 whole entry) above, with R167Q, R168Q, R174Q, R178Q counted along it

[8] = target: T2, IGF2BP1 S181E; experiment: EMSA; EMSA: 25 mM HEPES pH 7.3, 150 mM NaCl, 5% glycerol, 2 mM EDTA, 10 ug/mL heparin, 0.5 mM TCEP, on ice, gel 4 C; FA: 25 mM HEPES 7.3, 150 mM NaCl, 0.025% Tween 20, 10 ug/mL heparin, 2 mM EDTA, 0.5 mM TCEP, 10 nM RNA, 20 C; conditions: protein: recombinant; tags: GST removed by 3C
[9] = target: T3, IGF2BP1 Y396E; experiment: as above; conditions: protein: recombinant; tags: GST removed by 3C
[10] = target: T1, IGF2BP1 wild-type; experiment: as above; conditions: protein: recombinant; tags: GST removed by 3C
[11] = target: T4, IGF2BP1 KH3-4dR (KH3GEEG-KH4GEEG); experiment: as above; conditions: protein: recombinant; tags: GST removed by 3C
[12] = target: T5, IGF2BP1 RQ; experiment: as above; conditions: protein: recombinant; tags: GST removed by 3C

Binder	apparent K (half saturation) [1] [nM]	apparent K (half saturation) [2] [nM]	apparent K (half saturation) [3] [nM]	apparent K (half saturation) [4] [nM]	apparent K (half saturation) [5] [nM]	apparent K (half saturation) [6] [nM]	binding result [7]	apparent K (half saturation) [8] [nM]	apparent K (half saturation) [9] [nM]	apparent K (half saturation) [10] [nM]	apparent K (half saturation) [11] [nM]	binding result [12]
ACCGGACUGUUACCAACACCCACACCCC (ssRNA) [ACTB 28 nt]	75.2	68.5	1570									
GUGACAUGUCCUCUCUGCUUGGUGUAAACCAUUCUU (ssRNA) [XBP1 36 nt]	204	312	~1500	310	423	186	binds					
B1								17.1	22.9	41	64.7	binds
B2								17.8	16.7	14.4		
B3								35.4	40.2	48.2		
